Assay results: patent EP1942187B1

Experiments:
Assay in all cases: cell-based or functional assay
[1] = target: IL10Rb (CRF2-4) (human) (UniProt Q08334)
[2] = target: human zcytor19 (human)
[3] = target: zcytoR19 and IL10Rb (CRF2-4) coexpressed on BHK cells (human)

Chain of IL10Rb (CRF2-4) (human) (Q08334 20-325 limits assumed, form in doubt): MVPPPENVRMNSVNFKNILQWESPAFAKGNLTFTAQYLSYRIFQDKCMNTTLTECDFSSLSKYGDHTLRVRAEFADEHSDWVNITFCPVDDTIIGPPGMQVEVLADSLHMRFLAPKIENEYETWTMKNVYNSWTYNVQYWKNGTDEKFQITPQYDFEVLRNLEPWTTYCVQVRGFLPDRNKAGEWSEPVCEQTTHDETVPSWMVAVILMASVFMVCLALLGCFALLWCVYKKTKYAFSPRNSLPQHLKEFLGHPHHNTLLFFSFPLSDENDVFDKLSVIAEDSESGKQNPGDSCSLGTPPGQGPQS

## zcyto20-CEE (ligand)
[1]
  Optical Density (570nm), MTT, EMCV-infected HuzcytoR19-overexpressing 293 cells; Zcyto20-CEE 0.5 ng/ml; Anti-IL10Rb 5 ug/ml: 0.95 OD 570nm
  Optical Density (570nm), MTT, EMCV-infected HuzcytoR19-overexpressing 293 cells; Zcyto20-CEE 0.5 ng/ml; Anti-LeptinR 5 ug/ml (control antibody): 0.24 OD 570nm
  Optical Density (570nm), MTT, EMCV-infected wild-type 293 cells; Zcyto20-CEE 200 ng/ml; Anti-IL10Rb 5 ug/ml: 0.94 OD 570nm
  Optical Density (570nm), MTT, EMCV-infected wild-type 293 cells; Zcyto20-CEE 200 ng/ml; Anti-LeptinR 5 ug/ml (control antibody): 0.88 OD 570nm

## zcyto21 (from UniProt Q8IU54 20-200) (ligand)
[1]
  ISRE-luciferase fold induction; wild-type 293 cells; Zcyto21 0.001 ng/ml; + IL10Rb neutralizing antibody (2.5 ug/ml) (fold induction): 1.3
  ISRE-luciferase fold induction; wild-type 293 cells; Zcyto21 0.001 ng/ml; no antibody (fold induction): 1.2
  ISRE-luciferase fold induction; wild-type 293 cells; Zcyto21 0.01 ng/ml; + IL10Rb neutralizing antibody (2.5 ug/ml) (fold induction): 1.3
  ISRE-luciferase fold induction; wild-type 293 cells; Zcyto21 0.01 ng/ml; no antibody (fold induction): 1.2
  ISRE-luciferase fold induction; wild-type 293 cells; Zcyto21 0.1 ng/ml; + IL10Rb neutralizing antibody (2.5 ug/ml) (fold induction): 1.3
  ISRE-luciferase fold induction; wild-type 293 cells; Zcyto21 0.1 ng/ml; no antibody (fold induction): 1.1
  ISRE-luciferase fold induction; wild-type 293 cells; Zcyto21 1 ng/ml; + IL10Rb neutralizing antibody (2.5 ug/ml) (fold induction): 1.3
  ISRE-luciferase fold induction; wild-type 293 cells; Zcyto21 1 ng/ml; no antibody (fold induction): 1.5
  ISRE-luciferase fold induction; wild-type 293 cells; Zcyto21 10 ng/ml; + IL10Rb neutralizing antibody (2.5 ug/ml) (fold induction): 1.4
  ISRE-luciferase fold induction; wild-type 293 cells; Zcyto21 10 ng/ml; no antibody (fold induction): 3.2
  ISRE-luciferase fold induction; wild-type 293 cells; Zcyto21 100 ng/ml; + IL10Rb neutralizing antibody (2.5 ug/ml) (fold induction): 1.8
  ISRE-luciferase fold induction; wild-type 293 cells; Zcyto21 100 ng/ml; no antibody (fold induction): 4.1
  ISRE-luciferase fold induction; zcytoR19-overexpressing 293 cells; Zcyto21 0.001 ng/ml; + IL10Rb neutralizing antibody (2.5 ug/ml) (fold induction): 1
  ISRE-luciferase fold induction; zcytoR19-overexpressing 293 cells; Zcyto21 0.001 ng/ml; no antibody (fold induction): 1.1
  ISRE-luciferase fold induction; zcytoR19-overexpressing 293 cells; Zcyto21 0.01 ng/ml; + IL10Rb neutralizing antibody (2.5 ug/ml) (fold induction): 1.1
  ISRE-luciferase fold induction; zcytoR19-overexpressing 293 cells; Zcyto21 0.01 ng/ml; no antibody (fold induction): 3.5
  ISRE-luciferase fold induction; zcytoR19-overexpressing 293 cells; Zcyto21 0.1 ng/ml; + IL10Rb neutralizing antibody (2.5 ug/ml) (fold induction): 1
  ISRE-luciferase fold induction; zcytoR19-overexpressing 293 cells; Zcyto21 0.1 ng/ml; no antibody (fold induction): 1.5
  ISRE-luciferase fold induction; zcytoR19-overexpressing 293 cells; Zcyto21 1 ng/ml; + IL10Rb neutralizing antibody (2.5 ug/ml) (fold induction): 5.8
  ISRE-luciferase fold induction; zcytoR19-overexpressing 293 cells; Zcyto21 1 ng/ml; no antibody (fold induction): 35
  ISRE-luciferase fold induction; zcytoR19-overexpressing 293 cells; Zcyto21 10 ng/ml; + IL10Rb neutralizing antibody (2.5 ug/ml) (fold induction): 28
  ISRE-luciferase fold induction; zcytoR19-overexpressing 293 cells; Zcyto21 10 ng/ml; no antibody (fold induction): 48
  ISRE-luciferase fold induction; zcytoR19-overexpressing 293 cells; Zcyto21 100 ng/ml; + IL10Rb neutralizing antibody (2.5 ug/ml) (fold induction): 31
  ISRE-luciferase fold induction; zcytoR19-overexpressing 293 cells; Zcyto21 100 ng/ml; no antibody (fold induction): 45
[2]
  ISRE-luciferase fold induction; 293 cells transfected with ISRE-Luc./Zcytor19; Zcyto21 125ng/ml (fold induction): 108
  ISRE-luciferase fold induction; BHK cells transfected with zcytoR19 alone; zcyto21 0.001 ng/ml (fold induction): 1.3
  ISRE-luciferase fold induction; BHK cells transfected with zcytoR19 alone; zcyto21 0.01 ng/ml (fold induction): 1.4
  ISRE-luciferase fold induction; BHK cells transfected with zcytoR19 alone; zcyto21 0.1 ng/ml (fold induction): 1.4
  ISRE-luciferase fold induction; BHK cells transfected with zcytoR19 alone; zcyto21 1 ng/ml (fold induction): 2
  ISRE-luciferase fold induction; BHK cells transfected with zcytoR19 alone; zcyto21 10 ng/ml (fold induction): 2.4
  ISRE-luciferase fold induction; BHK cells transfected with zcytoR19 alone; zcyto21 100 ng/ml (fold induction): 2.6
  ISRE-luciferase fold induction; BHK cells transfected with zcytoR19 alone; zcyto21 1000 ng/ml (fold induction): 3.3
[3]
  ISRE-luciferase fold induction; BHK cells transfected with zcytoR19 and IL10Rb (CRF2-4); zcyto21 0.001 ng/ml (fold induction): 1.3
  ISRE-luciferase fold induction; BHK cells transfected with zcytoR19 and IL10Rb (CRF2-4); zcyto21 0.01 ng/ml (fold induction): 1.6
  ISRE-luciferase fold induction; BHK cells transfected with zcytoR19 and IL10Rb (CRF2-4); zcyto21 0.1 ng/ml (fold induction): 2.2
  ISRE-luciferase fold induction; BHK cells transfected with zcytoR19 and IL10Rb (CRF2-4); zcyto21 1 ng/ml (fold induction): 2.5
  ISRE-luciferase fold induction; BHK cells transfected with zcytoR19 and IL10Rb (CRF2-4); zcyto21 10 ng/ml (fold induction): 2.6
  ISRE-luciferase fold induction; BHK cells transfected with zcytoR19 and IL10Rb (CRF2-4); zcyto21 100 ng/ml (fold induction): 2.5
  ISRE-luciferase fold induction; BHK cells transfected with zcytoR19 and IL10Rb (CRF2-4); zcyto21 1000 ng/ml (fold induction): 2.2

## zcyto22 (ligand)
[1]
  ISRE-luciferase fold induction; wild-type 293 cells; Zcyto22 0.01 ng/ml; + IL10Rb neutralizing antibody (8 ug/ml) (fold induction): 0.9
  ISRE-luciferase fold induction; wild-type 293 cells; Zcyto22 0.01 ng/ml; no antibody (fold induction): 0.9
  ISRE-luciferase fold induction; wild-type 293 cells; Zcyto22 0.1 ng/ml; + IL10Rb neutralizing antibody (8 ug/ml) (fold induction): 0.8
  ISRE-luciferase fold induction; wild-type 293 cells; Zcyto22 0.1 ng/ml; no antibody (fold induction): 1.2
  ISRE-luciferase fold induction; wild-type 293 cells; Zcyto22 1 ng/ml; + IL10Rb neutralizing antibody (8 ug/ml) (fold induction): 0.8
  ISRE-luciferase fold induction; wild-type 293 cells; Zcyto22 1 ng/ml; no antibody (fold induction): 1.8
  ISRE-luciferase fold induction; wild-type 293 cells; Zcyto22 10 ng/ml; + IL10Rb neutralizing antibody (8 ug/ml) (fold induction): 1
  ISRE-luciferase fold induction; wild-type 293 cells; Zcyto22 10 ng/ml; no antibody (fold induction): 8
  ISRE-luciferase fold induction; wild-type 293 cells; Zcyto22 100 ng/ml; + IL10Rb neutralizing antibody (8 ug/ml) (fold induction): 1.2
  ISRE-luciferase fold induction; wild-type 293 cells; Zcyto22 100 ng/ml; no antibody (fold induction): 11
  ISRE-luciferase fold induction; zcytoR19-overexpressing 293 cells; Zcyto22 0.01 ng/ml; + IL10Rb neutralizing antibody (8 ug/ml) (fold induction): 1.3
  ISRE-luciferase fold induction; zcytoR19-overexpressing 293 cells; Zcyto22 0.01 ng/ml; no antibody (fold induction): 1
  ISRE-luciferase fold induction; zcytoR19-overexpressing 293 cells; Zcyto22 0.1 ng/ml; + IL10Rb neutralizing antibody (8 ug/ml) (fold induction): 1.1
  ISRE-luciferase fold induction; zcytoR19-overexpressing 293 cells; Zcyto22 0.1 ng/ml; no antibody (fold induction): 8.4
  ISRE-luciferase fold induction; zcytoR19-overexpressing 293 cells; Zcyto22 1 ng/ml; + IL10Rb neutralizing antibody (8 ug/ml) (fold induction): 2.3
  ISRE-luciferase fold induction; zcytoR19-overexpressing 293 cells; Zcyto22 1 ng/ml; no antibody (fold induction): 69
  ISRE-luciferase fold induction; zcytoR19-overexpressing 293 cells; Zcyto22 10 ng/ml; + IL10Rb neutralizing antibody (8 ug/ml) (fold induction): 39
  ISRE-luciferase fold induction; zcytoR19-overexpressing 293 cells; Zcyto22 10 ng/ml; no antibody (fold induction): 97
  ISRE-luciferase fold induction; zcytoR19-overexpressing 293 cells; Zcyto22 100 ng/ml; + IL10Rb neutralizing antibody (8 ug/ml) (fold induction): 76
  ISRE-luciferase fold induction; zcytoR19-overexpressing 293 cells; Zcyto22 100 ng/ml; no antibody (fold induction): 82
[2]
  ISRE-luciferase fold induction; 293 cells transfected with ISRE-Luc./Zcytor19; Zcyto22 125ng/ml (fold induction): 104
  ISRE-luciferase fold induction; BHK cells transfected with zcytoR19 alone; zcyto22 0.001 ng/ml (fold induction): 1.2
  ISRE-luciferase fold induction; BHK cells transfected with zcytoR19 alone; zcyto22 0.01 ng/ml (fold induction): 1.2
  ISRE-luciferase fold induction; BHK cells transfected with zcytoR19 alone; zcyto22 0.1 ng/ml (fold induction): 1.1
  ISRE-luciferase fold induction; BHK cells transfected with zcytoR19 alone; zcyto22 1 ng/ml (fold induction): 1.5
  ISRE-luciferase fold induction; BHK cells transfected with zcytoR19 alone; zcyto22 10 ng/ml (fold induction): 1.9
  ISRE-luciferase fold induction; BHK cells transfected with zcytoR19 alone; zcyto22 100 ng/ml (fold induction): 2
  ISRE-luciferase fold induction; BHK cells transfected with zcytoR19 alone; zcyto22 1000 ng/ml (fold induction): 1.8
[3]
  ISRE-luciferase fold induction; BHK cells transfected with zcytoR19 and IL10Rb (CRF2-4); zcyto22 0.001 ng/ml (fold induction): 1.3
  ISRE-luciferase fold induction; BHK cells transfected with zcytoR19 and IL10Rb (CRF2-4); zcyto22 0.01 ng/ml (fold induction): 1.7
  ISRE-luciferase fold induction; BHK cells transfected with zcytoR19 and IL10Rb (CRF2-4); zcyto22 0.1 ng/ml (fold induction): 2.4
  ISRE-luciferase fold induction; BHK cells transfected with zcytoR19 and IL10Rb (CRF2-4); zcyto22 1 ng/ml (fold induction): 2.7
  ISRE-luciferase fold induction; BHK cells transfected with zcytoR19 and IL10Rb (CRF2-4); zcyto22 10 ng/ml (fold induction): 2.7
  ISRE-luciferase fold induction; BHK cells transfected with zcytoR19 and IL10Rb (CRF2-4); zcyto22 100 ng/ml (fold induction): 2.2
  ISRE-luciferase fold induction; BHK cells transfected with zcytoR19 and IL10Rb (CRF2-4); zcyto22 1000 ng/ml (fold induction): 2.2
